According to paper PMC2120792:

Key:
[1] = biological target: SyPg(234), synaptophysin-plakoglobin chimera truncated after plakoglobin residue 234 (rat | human) (UniProt P07825); assay: co-IP
[2] = biological target: SyPg(580), synaptophysin-plakoglobin chimera truncated after plakoglobin residue 580 (rat | human) (UniProt P07825); assay: co-IP
[3] = biological target: recombinant human plakoglobin, complete (pQPg) (human) (UniProt P14923); assay: ELISA
UniProt P14923, sequence (P14923 whole entry): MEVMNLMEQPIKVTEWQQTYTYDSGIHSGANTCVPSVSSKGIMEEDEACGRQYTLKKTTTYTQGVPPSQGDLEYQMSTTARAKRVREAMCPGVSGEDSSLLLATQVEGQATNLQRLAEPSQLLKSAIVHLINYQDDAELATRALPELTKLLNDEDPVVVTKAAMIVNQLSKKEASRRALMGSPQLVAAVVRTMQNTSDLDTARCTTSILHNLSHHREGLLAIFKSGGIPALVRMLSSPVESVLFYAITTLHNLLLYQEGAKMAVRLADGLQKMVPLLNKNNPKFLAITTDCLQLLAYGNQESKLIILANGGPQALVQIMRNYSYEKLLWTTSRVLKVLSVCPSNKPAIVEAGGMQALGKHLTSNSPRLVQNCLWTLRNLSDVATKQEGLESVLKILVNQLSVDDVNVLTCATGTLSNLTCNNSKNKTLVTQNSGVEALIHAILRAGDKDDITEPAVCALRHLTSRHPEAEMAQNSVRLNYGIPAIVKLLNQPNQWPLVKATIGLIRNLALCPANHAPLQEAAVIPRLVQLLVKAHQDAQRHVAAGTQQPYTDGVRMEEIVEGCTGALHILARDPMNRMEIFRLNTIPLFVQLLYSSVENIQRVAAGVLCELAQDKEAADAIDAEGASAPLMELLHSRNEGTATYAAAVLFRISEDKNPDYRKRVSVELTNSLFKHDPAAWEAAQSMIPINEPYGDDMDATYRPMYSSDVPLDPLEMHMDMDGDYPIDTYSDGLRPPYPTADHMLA

Substance: endogenous desmoglein (Dsg) (from UniProt Q14126 50-1118) (natural protein)
- Dsg coprecipitated relative to SyPg (fraction of that with SyPg) [1]: < 0.33
- Dsg coprecipitated relative to SyPg (fraction of that with SyPg) [2]: < 0.33

Substance: HCDc, his-tagged cadherin tail with the IA subdomain and C-domain of bovine Dsc1 (domain or fragment)
- fold weaker binding than HCDg [3]: 2 fold

Substance: HCUv, his-tagged cadherin tail with the IA subdomain of bovine Dsc1 and the C-subdomain of murine E-cadherin
- fold weaker binding than HCDg [3]: 5 fold
